For this experiment, the target named is Cdk4/cyclin D1 complex (UniProt P11802).
The substance “p27-KID^(Y74E, Y89F) (domain or fragment)” returned a maximal extent of Cdk4 inhibition at saturating concentrations of 98%.

Consider “p27-KID^(pY74, pY88, Y89F) (domain or fragment)”, for which the maximal extent of Cdk4 inhibition at saturating concentrations came out at 80%.

Substance “p27-KID^(pY88, Y89F) (domain or fragment)” displayed a maximal extent of Cdk4 inhibition at saturating concentrations of 95%.

These data come from article PMC3331940.
